To fix the notation:
T1: PRLR-expressing cells (T47D) (Homo sapiens, UniProt P16471)
T1 construct: a native PRLR expressing cell line (T47D); endogenous in cells; host or cells: T47D
T1 sequence (P16471 25-622): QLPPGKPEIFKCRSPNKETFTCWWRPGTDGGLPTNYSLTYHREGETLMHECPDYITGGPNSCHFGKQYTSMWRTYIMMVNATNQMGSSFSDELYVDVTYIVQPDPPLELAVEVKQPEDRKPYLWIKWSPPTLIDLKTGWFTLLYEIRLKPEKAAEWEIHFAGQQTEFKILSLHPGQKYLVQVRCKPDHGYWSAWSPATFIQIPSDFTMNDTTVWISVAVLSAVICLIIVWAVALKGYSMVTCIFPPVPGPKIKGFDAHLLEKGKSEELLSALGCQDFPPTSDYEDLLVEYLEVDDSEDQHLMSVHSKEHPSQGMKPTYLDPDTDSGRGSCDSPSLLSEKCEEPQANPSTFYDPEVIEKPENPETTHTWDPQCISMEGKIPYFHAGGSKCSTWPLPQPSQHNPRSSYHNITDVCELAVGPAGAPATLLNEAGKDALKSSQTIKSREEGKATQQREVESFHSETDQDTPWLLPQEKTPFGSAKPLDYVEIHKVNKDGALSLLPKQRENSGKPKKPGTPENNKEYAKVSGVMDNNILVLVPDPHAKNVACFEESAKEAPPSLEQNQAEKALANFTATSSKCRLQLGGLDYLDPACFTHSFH

B1: H1H6800P: anti-PRLR antibody, human IgG1 Fc; HCVR/LCVR SEQ ID NOs 194/202 (antibody, V domains shown)
VH: EVQLVESGGGLVQPGRSLRLSCAASGFTFDGYAMHWVRQGPGKGLEWVSGISWYSDTLGYADSVKGRFTISRDNAKNSLYLQMNSLRTEDTAFYYCAKISSSGWAFDYWGQGTLVTVSS
VL: EIVLTQSPGTLSLSPGERATLSCRASHSVSSAYLAWYQQKPGQTPRLLIYGTSSRATGIPDRFSGSGSGTDFTLTISRLEPEDFAVYYCQQYGSSPLFTFGPGTKVDIK
modifications: human IgG1 Fc
B2: H1H6790P: anti-PRLR antibody, human IgG1 Fc; HCVR/LCVR SEQ ID NOs 114/122 (antibody, V domains shown)
VH: EVQLVESGGGLVQPGGSLRLSCAASGFTFSSYAMTWVRQAPGKGLEWVSAITGSVGNTYYADSVKGRFTISRDNSKNTLYLQMNSLGAEDTAEYYCAKGAGMTTNWYLDLWGRGTLVTVSS
VL: DIVMTQSPDSLAVSLGARATINCKSSQSVLYSSNNQNYLTWYQQKPGQPPKLLIKWASTRESGVPDRFSGSGSGTDFTLTISSLQAEDVAVYYCQQYASSPYTFGQGTKLEIK
modifications: human IgG1 Fc
B3: H1H6792P: anti-PRLR antibody, human IgG1 Fc; HCVR/LCVR SEQ ID NOs 130/138 (antibody, V domains shown)
VH: EVQLVESGGGLVQPGRSLRLSCAASGFTLDDHAVHWVRQAPGKGLEWVSGISWNSVYIDYADSVKGRFTIFRDNAKNSLYLQMNSLRAEDTAFYYCARDIEGARDYWGQGTLVTVSS
VL: DIQMTQSPSSLSASVGDRVTITCRASQGIRNDLGWYQQKPGKAPKRLIYAASSLQSGVPSRFSGSGYGTEFTLTISSLQPEDFAPYYCLQHNSYPLTFGGGTKVEIK
modifications: human IgG1 Fc
B4: H1H6793P: anti-PRLR antibody, human IgG1 Fc; HCVR/LCVR SEQ ID NOs 146/154 (antibody, V domains shown)
VH: EVQLVESGGGLVQPGGSLRLSCAASGFSFSIYAMSWFRQAPGKGLEWVSAINGRGDGTHYADSVKGRFTISRDNSKTTLYLQMSSLRAEDTAVYYCAKPVMSTNGFDIWGQGTMVTVSS
VL: DIQMTQSPSTLSASVGDRVTITCRASQSISSWLAWYQLKPGKAPKLLIYKASNLESGVPSRFSGSGSGTEFTLTISSLQPDDFATYYCQQYNIYWTFGQGTKVEIK
modifications: human IgG1 Fc
B5: H1H6797P: anti-PRLR antibody, human IgG1 Fc; HCVR/LCVR SEQ ID NOs 178/186 (antibody, V domains shown)
VH: EVQLVESGGGLVQPGGSLRLSCIVSGFTFSGSWMSWVRQLPGKGLEWVANIKEDGSDSYYVDSVEGRFTISRDNAKSSLYLQMNSLRVDDTAVYFCARARTVPLHYWGQGTLVTVSS
VL: DIQMTQSPSTLSASVGDRVTITCRASQSINIWLAWYQQKPGKAPKLLIYRASYLESGVPSSFAGGGSGTEFTLTISSLQPDDFGTYYCQHYNSYPFTFGQGTKLEIK
modifications: human IgG1 Fc
B6: H1H6795P: anti-PRLR antibody, human IgG1 Fc; HCVR/LCVR SEQ ID NOs 162/170 (antibody, V domains shown)
VH: QVQLVQSGAEVKKPGASVKVSCKASGYTFGTSGITWVRQAPGQGLEWMGWSSAYNGKTDYAQKFQDRVTMTTDTSTTTGYMEMRSLTSDDTAVYYCTTVVRRPFDFWGQGTLVTVSS
VL: DIQMTQSPSSLSASVGDRVTITCRASQDINNFLAWFQQKPGKAPKSLIYAASSLQSGVPSKFSGGGSGTDFALTISSLQPEDFATYYCQQYSSYPITFGQGTRLEIK
modifications: human IgG1 Fc

mfPRLR.mmh (monomeric macaca fascicularis PRLR), sequence (as listed by the source): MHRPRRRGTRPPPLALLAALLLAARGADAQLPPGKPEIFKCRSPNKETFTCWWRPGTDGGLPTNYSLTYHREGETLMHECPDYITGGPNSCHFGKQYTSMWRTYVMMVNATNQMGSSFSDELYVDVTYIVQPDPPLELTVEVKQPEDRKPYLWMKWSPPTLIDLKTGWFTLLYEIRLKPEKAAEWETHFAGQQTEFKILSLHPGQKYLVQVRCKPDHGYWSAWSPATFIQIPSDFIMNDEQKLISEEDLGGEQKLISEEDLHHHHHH

One assay concerns HEK293/hPRLR/STAT5-Luc cells (human PRLR). The assay can be described thus: STAT5-Luc luciferase reporter assay, blocking of PRL-mediated receptor activation. As to conditions: 5 nM constant PRL, 6 hr at 37° C. Type of assay: cell-based. An outline of the steps: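 Engineered HEK293 line stably carrying human PRLR and a STAT5-dependent luciferase reporter; antibodies (100 nM to 24 pM) incubated 6 hr at 37° C with 5 nM constant PRL, luminescence read. IC50 from four-parameter fit of 8-point curves; percent blocking at highest antibody dose; agonism without ligand also tested.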
In turn, B1 returned a concentration for half-maximal inhibition (IC50) of 0.355 nM.

Molecule B2 gave a concentration for half-maximal inhibition (IC50) of 0.206 nM.

In turn, B3 registered a half-inhibitory concentration (IC50) of 0.57 nM.

The same assay, now with this note: 100 nM antibody, 5 nM PRL.
Take B1: the “Percent Blocking at 100 nM Antibody” value was found to be 100%.

For B2, the “Percent Blocking at 100 nM Antibody” value is on record as 100%.

Regarding B4, the “Percent Blocking at 100 nM Antibody” value came out at 65%.

For the molecule B5, the “Percent Blocking at 100 nM Antibody” value is listed as 0%.

Turning to B3, the “Percent Blocking at 100 nM Antibody” value was determined as 100%.

With B6, the “Percent Blocking at 100 nM Antibody” value worked out at 0%.

The target of the next assay is T2, hPRLR.mFc (soluble dimeric human PRLR) (Homo sapiens, UniProt P16471).
T2 construct: dimeric (hPRLR.mFc)
T2 sequence (P16471 with tags, fused parts or gaps): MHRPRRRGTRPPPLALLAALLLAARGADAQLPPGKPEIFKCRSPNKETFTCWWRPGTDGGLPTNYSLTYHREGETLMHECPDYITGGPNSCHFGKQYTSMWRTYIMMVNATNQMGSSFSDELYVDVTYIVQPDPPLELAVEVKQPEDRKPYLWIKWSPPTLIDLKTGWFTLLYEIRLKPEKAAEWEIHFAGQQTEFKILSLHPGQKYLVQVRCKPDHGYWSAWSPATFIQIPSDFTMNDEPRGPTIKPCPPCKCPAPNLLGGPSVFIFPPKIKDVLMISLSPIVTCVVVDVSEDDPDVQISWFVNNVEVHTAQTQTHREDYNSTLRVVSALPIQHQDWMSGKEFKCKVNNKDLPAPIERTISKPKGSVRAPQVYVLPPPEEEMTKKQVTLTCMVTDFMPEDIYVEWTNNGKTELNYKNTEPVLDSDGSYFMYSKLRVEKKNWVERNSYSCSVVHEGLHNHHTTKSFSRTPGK
As to the kind of experiment: Surface plasmon resonance (Biacore T200), mAb-capture format. In kind it is binding. As to conditions: 25° C., antibody-capture format, analyte hPRLR.mFc. An outline of the steps:
(§1)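 First, IgG1-format antibodies were captured via anti-human Fc on the chip. Next, monomeric hPRLR.mmh or mfPRLR.mmh, or dimeric hPRLR.mFc, was injected. Finally, association and dissociation rates were fitted to 1:1 binding.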
(SPR reads the build-up and loss of mass on a sensor chip optically.)
B1 showed a Kd of 0.184 nM and a T½ of 133 min.

B2 registered a Kd of 0.192 nM and a T½ of 111 min.

Molecule B4 displayed a Kd of 0.331 nM and a T½ of 153 min.

For the molecule B5, the Kd came out at 0.122 nM and the T½ came to 97 min.

In turn, B3 yielded an equilibrium dissociation constant (Kd) of 0.313 nM and a T½ of 122 min.

On to B6, for which the Kd was determined as 0.0545 nM and the T½ amounted to 137 min.

Still in this assay, the particulars now being: 37° C., antibody-capture format, analyte hPRLR.mFc.
With B1, the Kd was 0.229 nM and the T½ is 79 min.

Regarding B2, the Kd stood at 0.306 nM and the T½ is reported as 58 min.

B4 displayed a Kd of 0.347 nM and a T½ of 81 min.

With B5, binding was characterised by a dissociation constant (Kd) of 0.0691 nM and the T½ was determined as 93 min.

The molecule B3 returned a Kd of 0.352 nM and a T½ of 66 min.

As to B6, the affinity, expressed as Kd, was 0.0402 nM and the T½ worked out at 149 min.

In the next assay the target is T3, hPRLR.mmh (soluble monomeric human PRLR) (Homo sapiens, UniProt P16471).
T3 construct: soluble monomeric (hPRLR.mmh); mmh (myc-myc-hexahistidine)
T3 sequence (P16471 with tags, fused parts or gaps): as the sequence (as listed by the source) above, with V105I, T139A, M154I, T187I, I236T counted along it
The description is as above. In kind it is binding. As to conditions: 25° C., antibody-capture format, analyte hPRLR.mmh. An outline of the steps: as §1
In turn, B1 displayed a dissociation constant (Kd) of 0.972 nM and a T½ of 28 min.

B2 showed a dissociation constant (Kd) of 1.41 nM and a T½ of 14 min.

In turn, B4 returned a Kd of 1.41 nM and a T½ of 35 min.

Molecule B5 returned a Kd of 1.73 nM and a T½ of 6 min.

B3 registered a Kd of 2.45 nM and a T½ of 15 min.

In turn, B6 displayed a Kd of 1.52 nM and a T½ of 7 min.

Still in this assay, the particulars now being: 37° C., antibody-capture format, analyte hPRLR.mmh.
Consider B1, for which the Kd was found to be 1.47 nM and the T½ turned out to be 10 min.

Consider B2, for which the Kd came out at 3.5 nM and the T½ is 4 min.

In turn, B4 yielded a Kd of 3.02 nM and a T½ of 11 min.

Molecule B5 registered a Kd of 6.37 nM and a T½ of 1 min.

Molecule B3 gave a Kd of 5.27 nM and a T½ of 5 min.

As for B6, the Kd came out at 3.81 nM and the T½ worked out at 2 min.

The next assay concerns the target mfPRLR.mmh (monomeric macaca fascicularis PRLR). Described as above. Type of assay: binding. As to conditions: 25° C., antibody-capture format, analyte mfPRLR.mmh. The gist of the method: as §1
B1 gave a dissociation constant Kd of 1.25 nM and a T½ of 30 min.

Turning to B2, the equilibrium dissociation constant (Kd) was 2.04 nM and the T½ was 15 min.

With B4, the dissociation constant Kd stood at 2.22 nM and the T½ is given as 29 min.

Molecule B5 gave a dissociation constant Kd of 3.12 nM and a T½ of 6 min.

B3 gave a dissociation constant Kd of 4.17 nM and a T½ of 12 min.

For B6, the Kd was determined as 2.33 nM and the T½ turned out to be 6 min.

Staying with this assay, now noted: 37° C., antibody-capture format, analyte mfPRLR.mmh.
The molecule B1 displayed a Kd of 2.48 nM and a T½ of 11 min.

Turning to B2, the dissociation constant (Kd) was found to be 5.22 nM and the T½ is 4 min.

For the molecule B4, binding was characterised by a dissociation constant (Kd) of 4.59 nM and the T½ came out at 11 min.

Molecule B5 had a Kd of 9.9 nM and a T½ of 1 min.

B3 yielded a dissociation constant Kd of 9.37 nM and a T½ of 4 min.

B6 returned a Kd of 6.16 nM and a T½ of 2 min.

Another assay addresses T1, PRLR-expressing cells (T47D). The assay can be described thus: Antibody binding and internalization by PRLR-expressing cells (imaging). In kind it is cell-based. The settings on record: [mAb] (0.67 nM), alexa488 intensity in intracellular vesicles, 1 h at 37° C.
For the molecule B1, the “% Internalization relative to Control I” value was 198.3%.

Regarding B2, the “% Internalization relative to Control I” value stood at 146.9%.

Turning to B4, the “% Internalization relative to Control I” value came out at 179.9%.

Regarding B5, the “% Internalization relative to Control I” value was found to be 145.2%.

Consider B3, for which the “% Internalization relative to Control I” value is on record as 155.9%.

B6: the “% Internalization relative to Control I” value is 150.7%.

The same assay, now with this note: [mAb] (0.67 nM), whole cell alexa488 intensity at 37° C.
Consider B1, for which the “% Total Binding relative to Control I” value is 186.8%.

As for B2, the “% Total Binding relative to Control I” value is 122.8%.

Consider B4, for which the “% Total Binding relative to Control I” value was determined as 177.9%.

B5: the “% Total Binding relative to Control I” value is 151.2%.

On to B3, for which the “% Total Binding relative to Control I” value came out at 110.6%.

As for B6, the “% Total Binding relative to Control I” value worked out at 123.4%.

Usually IC50 stands for the point on the concentration scale where inhibition reaches its midpoint. High values mean weaker potency, low ones greater potency. By Kd is commonly meant the constant that tells how readily two partners part at equilibrium.

The values are drawn from patent US9688764B2, “Methods of treating breast cancer by administering anti-human prolactin receptor (PRLR) antibodies” (REGENERON PHARMACEUTICALS, INC., priority 2013, dated 2017).
